Results on 13 compounds are retold here after patent publication EP0531080A2, “Peptide inhibitors of human papilloma virus protein binding to retinoblastoma gene protein” (MERCK & CO. INC., priority 1991, dated 1993).

Where a SMILES comes first, the peptide text is derived from it. Where no end group is shown, it is not given here. [ ]: non-standard residue; d: D form. NMeY = CN[C@@H](Cc1ccc(O)cc1)C(=O)O; NMeL = CN[C@@H](CC(C)C)C(=O)O

In assay [1] the target is T1, HPV-16 E7 protein binding to the RBG protein (Homo sapiens, UniProt P06400).
T1 sequence (P06400 1-928): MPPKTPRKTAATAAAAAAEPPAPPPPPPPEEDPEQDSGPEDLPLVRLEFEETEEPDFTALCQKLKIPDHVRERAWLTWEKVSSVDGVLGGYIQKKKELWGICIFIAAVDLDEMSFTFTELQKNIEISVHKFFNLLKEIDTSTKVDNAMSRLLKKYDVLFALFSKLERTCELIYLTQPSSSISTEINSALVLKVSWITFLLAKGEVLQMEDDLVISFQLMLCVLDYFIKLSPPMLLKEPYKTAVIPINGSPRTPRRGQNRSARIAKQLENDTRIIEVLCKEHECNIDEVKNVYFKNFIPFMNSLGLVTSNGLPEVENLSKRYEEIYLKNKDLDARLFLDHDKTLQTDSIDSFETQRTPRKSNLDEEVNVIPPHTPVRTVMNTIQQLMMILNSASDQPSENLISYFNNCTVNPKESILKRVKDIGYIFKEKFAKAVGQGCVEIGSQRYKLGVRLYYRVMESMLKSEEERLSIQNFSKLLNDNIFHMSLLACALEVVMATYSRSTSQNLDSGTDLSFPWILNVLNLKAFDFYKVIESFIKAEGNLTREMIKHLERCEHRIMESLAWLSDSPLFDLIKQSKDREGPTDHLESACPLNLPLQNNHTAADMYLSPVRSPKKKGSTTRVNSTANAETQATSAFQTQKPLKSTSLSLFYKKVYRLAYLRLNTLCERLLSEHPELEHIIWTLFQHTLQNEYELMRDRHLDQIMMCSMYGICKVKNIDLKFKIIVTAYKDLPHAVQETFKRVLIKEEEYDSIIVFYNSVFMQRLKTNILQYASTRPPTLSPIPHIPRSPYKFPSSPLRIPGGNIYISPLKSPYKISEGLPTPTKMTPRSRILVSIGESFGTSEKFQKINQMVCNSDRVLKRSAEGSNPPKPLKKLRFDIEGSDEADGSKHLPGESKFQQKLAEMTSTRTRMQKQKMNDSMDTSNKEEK
Briefly: Binding inhibition assay by immune precipitation (Example 2; Hela cell lysate plus radiolabeled E7 from rabbit reticulocyte lysate). Further details: Whole cell lysates of Hela cells were used as a source of human RBG protein; endogenous in cells; host or cells: HeLa whole cell lysate (RB); rabbit reticulocyte lysate, T7 promoter clone (E7). As for the experimental part:
Peptide A, Peptide B, and Acetyl-GRP 20-27 were assayed for their abilities to inhibit the binding of the HPV-16 E7 protein to the RBG protein. Binding inhibition assays were carried out in vitro using a modification of the procedure described by N. Dyson et al., Science 243: 934-936 1989. Whole cell lysates of Hela cells were used as a source of human RBG protein. Rabbit reticulocyte cell free lysates that permit transcription and translation of exogenously added DNAs served as a source of HPV-16 E7 protein. The HPV-16 E7 gene was added to the rabbit reticulocyte lysate as a recombinant DNA clone under the control of a T7 promoter and incubated for 60 minutes at 30°C in the presence of radiolabeled methionine to allow transcription of the HPV-16 E7 gene and translation into E7 protein that contained radiolabeled methionine. The Hela cell and rabbit reticulocyte lysates were then mixed and incubated at 4°C for 90 minutes. After further manipulations a murine antibody against the RBG protein was added and incubated at 4°C for 60 minutes. Next, a rabbit anti-mouse IgG antibody and protein A sepharose was added to the reaction mixture in order to immune precipitate the RBG protein. At the same time, the E7 protein that was bound to the RBG protein was also precipitated. […] This biochemical protocol yields a quantitative estimate of the binding of HPV-16 E7 protein to the RBG protein in vitro. […]

In assay [2] the target is T2, RBG Protein/E7 (complex formation between E7 protein and p105-RB) (Homo sapiens, UniProt P06400).
T2 construct: Cell lysates used as source of RBG protein were prepared from human T24 bladder carcinoma cells; endogenous in cells; host or cells: human T24 bladder carcinoma cells (whole cell lysate)
T2 sequence (P06400 1-928): T1 sequence (P06400 1-928)
Briefly: E7/RB solution assay (immunoprecipitation, T24 cell lysates as source of RBG protein). The format is binding. Particulars: average of at least two experiments, triplicate; read-out: SOLUTION ASSAY RBG Protein/E7 IC₅₀. As for the experimental part: (§1) An in vitro solution assay used for the detection of complex formation between E7 protein and p105-RB has been described by Dyson, et. al. (30). Cell lysates used as source of RBG protein were prepared from human T24 bladder carcinoma cells as described (30). C36 and the control antibody Pb416 are monoclonal antibodies directed against RGB protein and SV40 large T protein, respectively. These antibodies were a generous gift from E. Harlow (Cold Spring Harbor Laboratories, Cold Spring Harbor, NY). Immunoprecipitates of E7/RGB protein binding reactions containing serially diluted peptide antagonists were dissolved in 35 µl gel loasing buffer (30). Five µl was counted directly in Right Safe (Beckan, Palo Alto, CA.) scintillation cocktail and 25 µl was subjected to sodium dodecyl sulphate poly-acrylamide gel electrophoresis. Gels were dried and exposed to Kodak X-AR film at -70°C overnight. In order to more rapidly assay large numbers of samples and more easily quantitate the binding results, we developed a plate binding asszy for the detection of E7/RGB protein association. Purified recombinant E7 was resuspended in 0.1 M sodium carbonate, pH 9.5, at 1 ng/µl. Fifty microliters of this solution was placed inot each well of a polyvinyl chloride micortiter plate (COSTAR 2596, Cambridge, MA.). The plate was gently agitated for 18 hours at 4°C. The E7 solution was aspirated off and 100 µl of plate blocking buffer (PBB) [50mM Hepes 7.0, 250mM sodium chloride, 0.1% NP40, 0.5% (w/v) pigskin gelatin, and 0.02% sodium azide] was added pwe well. The buffer was removed and the plate was washed three times in the above buffer without the gelatin (PB). five femtomoles of ³⁵S-methionine (Amersham 100 Ci/mmole, Arlington Heights, IL.) labeled RBG protein prepared in a rabbit reticulocyte lysate was diluted in PB buffer containing various peptide antagonists to a final volume of 50 µl and added to the E7 treated plate. The plate was agsin incubated at 4°C with agitation for 1 hour after which the solution was aspirated and each well washed five times with PB. The top of the plate was removed using a hot wire cutting apparatus (D. Lee, Sunnyvale, CA). Each well eas placed in 3 ml of Ready Safe scintillation cocktail (Beckman, Palo Alto, CA.) and counted for one minute. • 30. Dyson, N. Duffy, L.A., and Harlow, E. (1989) Cancer Cells 7, 235-240 • 31. Merrifield, R.B. (1963) J. Am. Chem. Soc. 85, 2149-2154 • 32. Sakakibara, S., Shimonishi, Y., Kishida, Y., Okada, M., and Sugihara, H. (1967) Bull. Chem. Soc. Japan 40, 2164-2167 • 33. Rivier, J., McClentock, R., and Anderson, H. (1984) J. Chromatogr. 288, 303-328
(§2) IC ₅₀ values represent the average of at least two experiments in which each concentration of inhibitor was tested in triplicate. The varition between experiments was less than 10%. The 50% inhibition concentration are micromolar. ND = not determined. [formula] [formula] [formula] [formula]

The target of assay [3] is T1, HPV-16 E7 protein binding to the RBG protein. Briefly: HPV-16 E7 protein binding assay described by R.E. Jones et al. The note with it: lowest concentration stated to inhibit. As for the experimental part:
Peptides D and E were examined in the HPV-16 E7 protein binding assay described by R.E. Jones et al., The Journal of Biological Chemistry, Vol 265:12782-12785, 1990. This assay measures the binding of the E7 protein to the RBG protein. Peptides D and E inhibited HPV-16 E7 protein binding to the RBG protein at concentrations of Peptide D as low as 20nM and at concentrations of Peptide E as low as 2nM. […] Additionally, Peptide D and Peptide E are themselves antagonists of the HPV E7 protein binding to the RBG protein.

Assay [4] has as its target T3, RBG Protein/E7 (Homo sapiens, UniProt P06400).
T3 construct: made in house; host or cells: rabbit reticulocyte lysate (in vitro translation of RB)
T3 sequence (P06400 1-928): T1 sequence (P06400 1-928)
Briefly: E7/RB plate binding assay (recombinant E7 on plate, 35S-labeled RBG protein). The note with it: average of at least two experiments, triplicate; read-out: PLATE ASSAY RBG Protein/E7 IC₅₀. As for the experimental part:
as §1, §2

In the case of “Acetyl-GRP 20-27: last eight amino acid residues of the human gastrin releasing peptide, unrelated to the HPV E7 protein”, the “effect on HPV-16 E7 protein binding to the RBG protein” value in assay [1] (concentrations up to 60 uM) is “no effect”.

For the compound Ac-LYCYEQLNDSS-NH2 [Peptide C], in assay [1] (lowest concentration stated to inhibit), the “inhibited HPV-16 E7 protein binding to the RBG protein at concentrations as low as” value (“inhibited HPV-16 E7 protein binding” below) is 1 µM.

[ABU²⁴]-E7-(20-32)-AMIDE [Peptide 17]: in assay [2], the IC50 came to 20 µM.

`CC(=O)N[C@@H](CC(=O)O)C(=O)N(C)[C@@H](CC(C)C)C(=O)N[C@@H](Cc1ccc(O)cc1)C(=O)N[C@@H](CS)C(=O)N(C)[C@@H](Cc1ccc(O)cc1)C(=O)N[C@@H](CCC(=O)O)C(=O)N[C@@H](CCC(N)=O)C(=O)N(C)[C@@H](CC(C)C)C(=O)N[C@@H](CC(N)=O)C(N)=O` [Peptide E] (Ac-D[NMeL]YC[NMeY]EQ[NMeL]N-NH2): the “inhibited HPV-16 E7 protein binding” value in assay [3] is reported as 2 nM.

For the compound “[G1n27]]-E7-(20-27)-AMIDE (TDLYCYEQ-NH2; UniProt P03129 20-27, looked up, fragment) [Peptide 5]”, the IC50 was 50 µM in assay [2] and 9.1 µM in assay [4].

For [ACM²⁴]-E7-(20-32)-AMIDE [Peptide 18], the IC50 in assay [2] was > 100 µM.

In the case of “TDLFCYEQLN-NH2 [Peptide 19, [Phe²³]-E7-(20-29)-AMIDE]”, in assay [4], the IC50 is 0.06 µM.

As to “[Ser²⁴]-E7-(20-32)-AMIDE (TDLYSYEQLNDSS-NH2; UniProt P03129 20-32, looked up, variant C24S) [Peptide 16]”, the IC50 in assay [2] came out at 40 µM.

For the compound “E7-(21)32)-AMIDE (DLYCYEQLNDSS-NH2; UniProt P03129 21-32, looked up, fragment) [Peptide 10]”, the values for the IC50 in assay [2] and in assay [4] were 20 µM and 11.4 µM, respectively.

Consider “E7-(14-29)-AMIDE (DLQPETTDLYCYEQLN-NH2; UniProt P03129 14-29, looked up, fragment) [Peptide 7]”, for which, in assay [4], the IC50 was 0.08 µM.

Turning to “E7-(20-32)-AMIDE (TDLYCYEQLNDSS-NH2; UniProt P03129 20-32, looked up, fragment) [Peptide 1]”, the results for the IC50 in assay [2] and in assay [4] were 1 µM and 0.05 µM, respectively.

In the case of Ac-DLYCYEQLN-NH2 [Peptide D], the “inhibited HPV-16 E7 protein binding” value in assay [3] is recorded as 20 nM.

For the compound “E7-(18-29)-AMIDE (ETTDLYCYEQLN-NH2; UniProt P03129 18-29, looked up, fragment) [Peptide 8]”, the values for the IC50 in assay [2] and in assay [4] were 0.4 µM and 0.06 µM, respectively.
